± gives the standard deviation.

This series in a line: protein stability index of a GFP-peptide fusion (GPS, HEK-293T) (PSI 1-6); higher = more stable. The settings on record: c terminus: a fixed tail appended.
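Further: 24-mer peptide tiles fused after GFP, lentivirally expressed, FACS-sorted into six equal bins by GFP/DsRed ratio, decoded by Illumina sequencing, PSI is the read-weighted mean bin number.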

EEEEEGRFYYSEDDHGDECSYTDL [KCNA4] returned a protein stability index (treatment: DMSO) of 5.4 ± 0.12 and a protein stability index (treatment: MLN4924 1 uM, 8 h) of 5.33 ± 0.2.
The corresponding values for EEETYKCLECGKSFCHGSSLKRHL [ZNF449] are 3.77 ± 0.5 and 3.78 ± 0.79.
The corresponding values for EEINKNISDFGRQQLLPPFPSLHQ [EHMT1] are 3.08 ± 0.27 and 3.64 ± 0.4.
In the same order, the values of EEITEESLEESVGKPLYLIFRNLC [INTS3] are 2.79 ± 0.58 and 2.88 ± 0.38.
Turning to EEQALTKAAEGGLSSPEFSELCIW [FAM98B], the protein stability index came to 3.72 ± 0.052 (treatment: DMSO) and 3.65 ± 0.11 (treatment: MLN4924 1 uM, 8 h).
The corresponding values for EFSSVGTEMIITKAGRRMFPACRV [TBX6] are 2.7 ± 0.21 and 2.66 ± 0.34.
Regarding EGDPGSKQPRKKRGRYRQYNSEIL [LCOR], the protein stability index (treatment: DMSO) was found to be 4.64 ± 0.22 and the protein stability index (treatment: MLN4924 1 uM, 8 h) turned out to be 4.55 ± 0.28.
In the same order, the values of EGGGTSLHVACELARPECLFLLLG [ANKRD9] are 2.03 ± 0.091 and 2.06 ± 0.67.
With EGVSLTAVLTTHHHWDHARGNPEL [HAGHL], the protein stability index reads like this: (treatment: DMSO) 2.72 ± 0.27; (treatment: MLN4924 1 uM, 8 h) 2.87 ± 0.42.
Regarding EGYILREDGKTCRRKDVCQAIDHG [MATN2], the protein stability index (treatment: DMSO) came out at 4.31 ± 0.63 and the protein stability index (treatment: MLN4924 1 uM, 8 h) turned out to be 4.44 ± 0.22.
In the same order, the values of EIIELRRTVNALEIELQAQHNLRD [KRT34] are 2.89 ± 0.36 and 3.03 ± 0.22.
In the same order, the values of EKDRIKSFTTNEKAILEQNFRDLV [TRIM29] are 3.53 ± 0.27 and 3.82 ± 0.43.
Take EKETQIIASIGRHRYIAYMANQEA [IQUB]: the protein stability index runs as follows: (treatment: DMSO) 3.07 ± 0.32; (treatment: MLN4924 1 uM, 8 h) 2.88 ± 0.46.
In the same order, the values of EKGEKGDRAGDASKDILLGPWDMV [SCARA5] are 4.41 ± 0.37 and 4.71 ± 0.36.
In the same order, the values of EKVKACQGQYETIERLRSLSPKIM [TBC1D10A] are 3.02 ± 0.28 and 3.23 ± 0.16.
The corresponding values for ELEIELQSQLSMKAGLENSLAETE [KRT15] are 4.77 ± 0.33 and 4.75 ± 0.25.
For the sequence ELKMRAIQAEERLDMEKRRCRQSL [LRRC45], the protein stability index worked out at 3.92 ± 0.22 (treatment: DMSO) and 4.13 ± 0.11 (treatment: MLN4924 1 uM, 8 h).
In the same order, the values of ELNAEKFKNSLLQKELKKAQMAKA [WEE1] are 4 ± 0.84 and 3.42 ± 0.4.
In the same order, the values of ELQLEQSRAANQEQRANDLEQIME [CEP70] are 5.1 ± 0.15 and 5.16 ± 0.092.
The corresponding values for ELQLSDLLKQGYNKTLLRLRLRKE [PKD2L1] are 2.39 ± 0.26 and 2.76 ± 0.24.
Consider ELSSVHPPHYFFTYRIRIEMSKDA [FBXO3], for which the protein stability index is 2.15 ± 0.21 (treatment: DMSO) and 2.18 ± 0.42 (treatment: MLN4924 1 uM, 8 h).
In the same order, the values of ELVLCVLVSIRNNRNLQKFSLFGD [FBXO33] are 2.87 ± 0.54 and 2.86 ± 0.34.
With ENDSTPTVSTSEVTSQQEPQIPVD [TAF7L], the protein stability index was 5.53 ± 0.2 (treatment: DMSO) and 5.59 ± 0.26 (treatment: MLN4924 1 uM, 8 h).
The corresponding values for ENERVRGLETGDWGGAPKEGSIWR [ZSWIM9] are 4.29 ± 0.32 and 4.16 ± 0.28.
The corresponding values for ENIDSLYNVNLSKGRAALSATVPR [SCNN1D] are 3.94 ± 0.39 and 4.04 ± 0.24.
For the sequence ENRVSTLRVSPDGTAFCSGSWDHT [GNB5], the protein stability index came to 3.95 ± 0.14 (treatment: DMSO) and 3.9 ± 0.19 (treatment: MLN4924 1 uM, 8 h).
The corresponding values for EPEDMETLEEKFSDVHPVALNFMK [CDKL4] are 4.68 ± 0.3 and 4.89 ± 0.19.
Consider EPERQVQHEESTEGEADHSGYAGE [UFD1], for which the protein stability index amounted to 5.61 ± 0.28 (treatment: DMSO) and 5.7 ± 0.24 (treatment: MLN4924 1 uM, 8 h).
In the same order, the values of EPGRLYLDLILAILALELICSLIC [TMEM192] are 2.35 ± 0.49 and 2.21 ± 0.34.
In the same order, the values of EQLAALSQAPVNKPKKKKEKKEKE [BRD3] are 5.38 ± 0.2 and 5.67 ± 0.2.
On to EQLGSGDGIPQVYYFGPCGKYNAM [CSNK1G3], for which the protein stability index by setting is: (treatment: DMSO) 2.34 ± 0.14; (treatment: MLN4924 1 uM, 8 h) 2.56 ± 0.17.
Consider EQWDRLLVLYPTSLAIFSEELDGL [PLEKHN1], for which the protein stability index is 2.37 ± 0.3 (treatment: DMSO) and 2.44 ± 0.43 (treatment: MLN4924 1 uM, 8 h).
On to ERIRLLRQKREAAARKKYNLLQDS [C18orf25], for which the protein stability index (treatment: DMSO) is 3.25 ± 0.34 and the protein stability index (treatment: MLN4924 1 uM, 8 h) amounted to 3.6 ± 0.36.
Turning to ERLFGSAANVVSAKRNRLAPAHVD [ZBED1], the protein stability index was determined as 3.65 ± 0.41 (treatment: DMSO) and 3.66 ± 0.34 (treatment: MLN4924 1 uM, 8 h).
The corresponding values for ERSDLEEDNEREGTENGAIDAVPV [ZC3H15] are 5.5 ± 0.19 and 5.5 ± 0.33.
The corresponding values for ERSDPVEQGKPVIPAAVLAGFTGS [ETS2] are 4.59 ± 0.23 and 4.7 ± 0.31.
Turning to ERSRGRSISRGRHARTHPQTALLE [MATN2], the protein stability index (treatment: DMSO) is 4.31 ± 0.53 and the protein stability index (treatment: MLN4924 1 uM, 8 h) amounted to 4.72 ± 0.3.
The corresponding values for ESEEEGPWEPPVLPILTWPVLQSR [HDAC6] are 4.5 ± 0.17 and 4.37 ± 0.15.
In the same order, the values of ETLEASVGPRETEEKVRDLLWAKF [TOR1AIP2] are 3.98 ± 0.22 and 3.92 ± 0.3.
In the same order, the values of ETRPAKRITITESNMKSRYTTEFH [WEE1] are 3.49 ± 0.27 and 3.6 ± 0.071.
As for ETSVFDQFGIKDVFDNAIRAALIS [RHOBTB1], the protein stability index by setting is: (treatment: DMSO) 2.3 ± 0.22; (treatment: MLN4924 1 uM, 8 h) 2.18 ± 0.33.
The corresponding values for EVCYEDLGCFSDTEPWGGTAIRPL [PNLIPRP1] are 3.18 ± 0.19 and 3.54 ± 0.66.
In the same order, the values of EVEVVEEAKCCCFFKRKRKKTAQR [CSNK1G1] are 4.4 ± 0.41 and 4.45 ± 0.12.
In the same order, the values of EVIISWSEKASKKYVSKELAKEIR [EIF5] are 2.34 ± 0.15 and 2.57 ± 0.26.
Take EWFQNCYARYHQAFADRDQSERQR [TEKT4]: the protein stability index by setting is: (treatment: DMSO) 3.41 ± 0.24; (treatment: MLN4924 1 uM, 8 h) 3.21 ± 0.21.
The corresponding values for EYDYLFKVVLIGDSGVGKSNLLSR [RAB11A] are 2.6 ± 0.65 and 2.39 ± 0.7.
Regarding EYECRRRMLMKRLDVTVQSFGWSD [FAM98B], the protein stability index is, setting by setting: (treatment: DMSO) 2.48 ± 0.14; (treatment: MLN4924 1 uM, 8 h) 2.45 ± 0.11.
The corresponding values for EYLLSFPAGKTPVPAGEEEGELGE [VPS39] are 5.25 ± 0.43 and 5.31 ± 0.071.
The corresponding values for EYVLLKALALANSDSVHIEDAEAV [ESRRA] are 3.36 ± 0.33 and 3.55 ± 0.37.
In the same order, the values of FAHHSLFLHVRKATRAMGLLNTLS [TMEM175] are 2.6 ± 0.78 and 2.18 ± 0.23.
With FAKKLVDRTWTLCGTPEYLAPEVI [PRKX], the protein stability index by setting is: (treatment: DMSO) 2.63 ± 0.8; (treatment: MLN4924 1 uM, 8 h) 2.29 ± 0.19.
The corresponding values for FCISLLRERFMECLMIGRDLVRLL [INTS3] are 2.27 ± 0.28 and 2.29 ± 0.13.

The values are drawn from the supplement of paper PMC10567573.
